The supplement of paper PMC10724198
± gives the standard deviation of the averaged measurements.

Key:
Saccharomyces cerevisiae [1] = experiment: protein stability index of tFT-peptide fusion (C-terminal peptide) (PSI (0-1 scale)); higher = more stable (slower turnover); conditions: genetic background: wild type; temperature: 30 C
Saccharomyces cerevisiae [2] = experiment: as above
Method: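 MPS profiling in S. cerevisiae of the tFT-X12 degron library: putative degron peptides plus stable controls, 12 aa, fused to the C-terminus of a sfGFP-mCherry timer. Cells are FACS-sorted into 8 mCherry/sfGFP bins and deep-sequenced. PSI runs from 0 (unstable) to 1 (stable). Backgrounds are wild type, das1Δ and doa10Δ at 30 °C, and wild type, das1Δ, cdc34-1 and cdc53-1 at 37 °C; 2-3 technical replicates each.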

[3] = genetic background: cdc34-1, temperature: 37 C
[4] = genetic background: cdc53-1, temperature: 37 C
[5] = genetic background: das1 deletion, temperature: 30 C
[6] = genetic background: das1 deletion, temperature: 37 C
[7] = genetic background: doa10 deletion, temperature: 30 C
[8] = genetic background: wild type, temperature: 30 C
[9] = genetic background: wild type, temperature: 37 C
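Note: PSI is a weighted mean of sequencing reads over stability bins, variants kept only with over 10 reads, mCherry proximal and sfGFP distal, peptide attached via GGGS linker.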

| Sequence | protein stability index (Saccharomyces cerevisiae [1]) | protein stability index (Saccharomyces cerevisiae [2]; [3]) | protein stability index (Saccharomyces cerevisiae [2]; [4]) | protein stability index (Saccharomyces cerevisiae [2]; [5]) | protein stability index (Saccharomyces cerevisiae [2]; [6]) | protein stability index (Saccharomyces cerevisiae [2]; [7]) | protein stability index (Saccharomyces cerevisiae [2]; [8]) | protein stability index (Saccharomyces cerevisiae [2]; [9]) |
| --- | --- | --- | --- | --- | --- | --- | --- | --- |
| YALVQHRWVYYF | 0.119 ± 0.031 | 0.4 ± 0.0056 | 0.633 ± 0.061 | 0.625 ± 0.019 | 0.724 ± 0.011 | 0.0888 ± 0.011 | 0.0761 ± 0.011 | 0.0856 ± 0.0031 |
| GAWLAVCVVREG | 0.479 ± 0.022 | 0.493 ± 0.04 | 0.568 ± 0.014 | 0.398 ± 0.023 | 0.589 ± 0.0069 | 0.37 ± 0.007 | 0.405 ± 0.021 | 0.5526 ± 0.0021 |
| FFPFHPHVLRLL | 0.282 ± 0.053 | 0.421 ± 0.044 | 0.433 ± 0.014 | 0.477 ± 0.039 | 0.6373 ± 0.0012 | 0.215 ± 0.0068 | 0.203 ± 0.026 | 0.324 ± 0.014 |
| IWYGLFWLRFWV | 0.51 ± 0.055 | 0.513 ± 0.044 | 0.572 ± 0.018 | 0.497 ± 0.018 | 0.586 ± 0.015 | 0.444 ± 0.018 | 0.423 ± 0.023 | 0.5368 ± 0.0047 |
| SSGRLRFISRIH | 0.454 ± 0.027 | 0.654 ± 0.033 | 0.7064 ± 0.0053 | 0.656 ± 0.048 | 0.7487 ± 0.0033 | 0.316 ± 0.019 | 0.347 ± 0.018 | 0.5972 ± 0.0037 |
| PVLYSFSLWIHL | 0.361 ± 0.0082 | 0.34 ± 0.049 | 0.441 ± 0.024 | 0.299 ± 0.028 | 0.457 ± 0.011 | 0.2273 ± 0.00038 | 0.255 ± 0.02 | 0.389 ± 0.02 |
| DNLYSLEFMAIR | 0.566 ± 0.19 | 0.719 ± 0.04 | 0.78 ± 0.016 | 0.647 ± 0.021 | 0.7875 ± 0.0042 | 0.655 ± 0.025 | 0.645 ± 0.012 | 0.7796 ± 0.004 |
| GWCLGFWCLLVC | 0.118 ± 0.093 | 0.0399 ± 0.0089 | 0.0444 ± 0.0049 | 0.123 ± 0.02 | 0.156 ± 0.019 | 0.0958 ± 0.005 | 0.0537 ± 0.018 | 0.068 ± 0.014 |
| LMLIPRLLVGAH | 0.291 ± 0.014 | 0.181 ± 0.034 | 0.172 ± 0.0025 | 0.184 ± 0.029 | 0.2958 ± 0.0022 | 0.152 ± 0.008 | 0.181 ± 0.018 | 0.2523 ± 0.0011 |
| ILFRRRLCCFLK | 0.4735 ± 0.0015 | 0.349 ± 0.03 | 0.434 ± 0.0052 | 0.443 ± 0.019 | 0.536 ± 0.012 | 0.506 ± 0.021 | 0.396 ± 0.018 | 0.484 ± 0.021 |
| PVKGTMIKAKNT | 0.354 ± 0.068 | 0.659 ± 0.088 | 0.73 ± 0.027 | 0.607 ± 0.026 | 0.71 ± 0.0026 | 0.184 ± 0.017 | 0.193 ± 0.024 | 0.341 ± 0.043 |
| LFFCYRVFLLVF | 0.185 ± 0.019 | 0.132 ± 0.01 | 0.152 ± 0.0027 | 0.199 ± 0.023 | 0.243 ± 0.006 | 0.121 ± 0.016 | 0.106 ± 0.026 | 0.1719 ± 0.00093 |
| IISICLYFLVRC | 0.299 ± 0.045 | 0.223 ± 0.003 | 0.326 ± 0.073 | 0.229 ± 0.027 | 0.391 ± 0.0067 | 0.212 ± 0.0074 | 0.212 ± 0.015 | 0.327 ± 0.0058 |
| LIAGTRRIPLFI | 0.406 ± 0.039 | 0.593 ± 0.048 | 0.638 ± 0.022 | 0.515 ± 0.043 | 0.665 ± 0.0049 | 0.225 ± 0.0037 | 0.261 ± 0.053 | 0.466 ± 0.015 |
| SLSALPRPPRLL | 0.614 ± 0.26 | 0.669 ± 0.0078 | 0.713 ± 0.022 | 0.673 ± 0.021 | 0.7323 ± 0.0002 | 0.698 ± 0.027 | 0.677 ± 0.023 | 0.694 ± 0.0087 |
| FKVTWGLFYGSV | 0.44 ± 0.061 | 0.551 ± 0.098 | 0.653 ± 0.048 | 0.505 ± 0.034 | 0.581 ± 0.013 | 0.535 ± 0.059 | 0.548 ± 0.026 | 0.595 ± 0.011 |
| HIVYCSSEQIKC | 0.497 ± 0.0059 | 0.53 ± 0.048 | 0.6419 ± 0.0016 | 0.446 ± 0.026 | 0.589 ± 0.0063 | 0.482 ± 0.028 | 0.483 ± 0.029 | 0.56 ± 0.032 |
| ECCKRFCCRFVA | 0.338 ± 0.044 | 0.627 ± 0.038 | 0.6982 ± 0.0042 | 0.644 ± 0.0065 | 0.73 ± 0.018 | 0.231 ± 0.0082 | 0.256 ± 0.021 | 0.4002 ± 0.0022 |
| CVPGPRWWYHSA | 0.446 ± 0.0059 | 0.671 ± 0.031 | 0.755 ± 0.015 | 0.685 ± 0.031 | 0.775 ± 0.011 | 0.233 ± 0.0045 | 0.272 ± 0.019 | 0.53465 ± 0.00023 |
| LYSLRRNWLRTP | 0.323 ± 0.04 | 0.637 ± 0.032 | 0.726 ± 0.016 | 0.672 ± 0.016 | 0.772 ± 0.0095 | 0.1676 ± 0.0011 | 0.21 ± 0.026 | 0.478 ± 0.019 |
| PSPVPPPSSPSP | 0.71 ± 0.012 | 0.682 ± 0.029 | 0.728 ± 0.027 | 0.67 ± 0.026 | 0.717 ± 0.022 | 0.674 ± 0.021 | 0.684 ± 0.029 | 0.7075 ± 0.0063 |
| TIKGRLNVRKIE | 0.552 ± 0.11 | 0.653 ± 0.055 | 0.7066 ± 0.0065 | 0.623 ± 0.0085 | 0.741 ± 0.025 | 0.3538 ± 0.0019 | 0.463 ± 0.032 | 0.573 ± 0.085 |
| LYRSLLLSFCVL | 0.483 ± 0.0052 | 0.593 ± 0.023 | 0.6381 ± 0.00019 | 0.528 ± 0.011 | 0.639 ± 0.018 | 0.407 ± 0.031 | 0.411 ± 0.022 | 0.521 ± 0.012 |
| LLPSPLLLYSLS | 0.451 ± 0.028 | 0.556 ± 0.03 | 0.578 ± 0.019 | 0.434 ± 0.022 | 0.6022 ± 0.0024 | 0.3814 ± 0.0018 | 0.412 ± 0.017 | 0.562 ± 0.015 |
| HLLMLAMVGFQC | 0.487 ± 0.017 | 0.5752 ± 0.0029 | 0.688 ± 0.0015 | 0.475 ± 0.038 | 0.619 ± 0.02 | 0.424 ± 0.0061 | 0.454 ± 0.022 | 0.583 ± 0.025 |
| FVVVGVLFLCVG | 0.367 ± 0.025 | 0.256 ± 0.0023 | 0.4122 ± 0.00071 | 0.278 ± 0.023 | 0.479 ± 0.011 | 0.258 ± 0.0065 | 0.277 ± 0.03 | 0.442 ± 0.007 |
| FFVFYICSCFLV | 0.4 ± 0.047 | 0.444 ± 0.037 | 0.476 ± 0.0043 | 0.389 ± 0.02 | 0.4843 ± 0.0041 | 0.457 ± 0.0071 | 0.372 ± 0.0097 | 0.442 ± 0.024 |
| FRFGAKISLIVL | 0.368 ± 0.064 | 0.569 ± 0.019 | 0.565 ± 0.014 | 0.47 ± 0.018 | 0.584 ± 0.015 | 0.189 ± 0.0063 | 0.225 ± 0.033 | 0.42 ± 0.034 |
| LSLLCFVASVVA | 0.275 ± 0.016 | 0.168 ± 0.0083 | 0.195 ± 0.005 | 0.238 ± 0.027 | 0.292 ± 0.015 | 0.1585 ± 0.00028 | 0.194 ± 0.021 | 0.224 ± 0.013 |
| SCLLVVVSTSGN | 0.433 ± 0.0062 | 0.5364 ± 0.0018 | 0.573 ± 0.0061 | 0.404 ± 0.043 | 0.611 ± 0.0019 | 0.374 ± 0.015 | 0.4057 ± 0.002 | 0.588 ± 0.022 |
